Source: US20230167423A1, “RING NUCLEASE” (priority 2019, published 2023)
Entries after “also recorded” stand apart in the source; their conditions may differ. Where two headings read alike, the source gives them in different places.

Legend:
cA4 [1] = assay: Radiolabelled cA4 cleavage assay, single turnover kinetics; format: biochemical; conditions: for cA4 cleavage / ring nuclease activity in vitro: 37° C., recombinant protein (FIG. 5); for cA4 cleavage single turnover rate constant: 50° C., 4 μM protein dimer, Csx1 buffer
[2] = system: HEPN ribonuclease StCsm6′; assay: cA6 degradation, deactivation of cA6-activated HEPN ribonuclease StCsm6′; format: biochemical, S. thermophilus
Description: Ring nuclease (Tsac_2833, 2 μM dimer) was incubated with the indicated concentration of cA6 for 60 min at 37° C. […] Control c1 is RNA in the absence of protein, c2 is RNA incubated with Tsac_2833 and c3 is RNA incubated with StCsm6′ in the absence of cA6 activator. vRN—ring nuclease.
Ring nuclease (SIRV1_114a, 2 μM; labelled “vRN”) was incubated with the indicated concentration of cA6 for 20 or 60 min at 70° C. and cooled on ice for 5 min.
When investigating cA6 degradation capacity, THSA-485A Tsac_2833 (2 μM dimer) was incubated with cA6 (50-0.5 μM) for 20 min or 60 min at 37° C. prior to adding 0.5 μM dimer StCsm6′ and 50 nM radio-labelled RNA A1. Reactions were then left to proceed for 60 min at 37° C. before quenching reactions by phenol-chloroform extraction and visualising RNA degradation by phosphor imaging following denaturing PAGE.
A deactivation assay was carried out using the S. thermophilus HEPN ribonuclease StCsm6′, a ribonuclease activated by cA6.

[3] = system: recombinant type III CRISPR system from Mycobacterium tuberculosis; format: cell-based, Escherichia coli
cA4 [4] = assay: Substrate specificity of ring nuclease by TLC: cA4; format: biochemical; conditions: multiple-turnover, 49 μM protein, 450 μM substrate, 70° C.
Description: (§1) The reactions were then deproteinised by phenol-chloroform extraction followed by chloroform extraction and products separated by TLC. Substrate degradation was visualised and imaged under short-wave ([…]) UV light.

cA6 = assay: Substrate specificity of ring nuclease by TLC: cA6; format: biochemical; conditions: multiple-turnover, 49 μM protein, 450 μM substrate, 70° C.
Description: as §1

cyclic-AMP = assay: Substrate specificity of ring nuclease by TLC: cyclic-AMP; format: biochemical; conditions: multiple-turnover, 49 μM protein, 450 μM substrate, 70° C.
Description: as §1

cyclic-di-AMP = assay: Substrate specificity of ring nuclease by TLC: cyclic-di-AMP; format: biochemical; conditions: multiple-turnover, 49 μM protein, 450 μM substrate, 70° C.
Description: as §1

cyclic-di-GMP = assay: Substrate specificity of ring nuclease by TLC: cyclic-di-GMP; format: biochemical; conditions: multiple-turnover, 49 μM protein, 450 μM substrate, 70° C.
Description: as §1

cyclic-CAMP = assay: Substrate specificity of ring nuclease by TLC: cyclic-CAMP; format: biochemical; conditions: multiple-turnover, 49 μM protein, 450 μM substrate, 70° C.
Description: as §1

[5] = target: T1, HEPN family ribonuclease Csx1 (Saccharolobus solfataricus, UniProt Q97YD5); assay: Deactivation of HEPN nuclease Csx1 in coupled assay with Csm complex and A26 RNA target; format: biochemical, Sulfolobus solfataricus
T1 sequence (Q97YD5 1-377): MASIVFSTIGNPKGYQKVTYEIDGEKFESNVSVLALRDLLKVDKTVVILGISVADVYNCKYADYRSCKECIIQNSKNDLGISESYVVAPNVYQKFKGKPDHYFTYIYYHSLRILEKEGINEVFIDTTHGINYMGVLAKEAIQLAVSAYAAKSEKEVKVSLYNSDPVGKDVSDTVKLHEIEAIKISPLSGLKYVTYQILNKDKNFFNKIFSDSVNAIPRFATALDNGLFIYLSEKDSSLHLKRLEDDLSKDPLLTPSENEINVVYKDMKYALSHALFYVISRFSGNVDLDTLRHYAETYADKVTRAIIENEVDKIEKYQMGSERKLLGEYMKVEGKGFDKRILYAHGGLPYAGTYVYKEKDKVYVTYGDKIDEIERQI
Description: FIG. 4. Comparison of the kinetics of the ring nucleases disclosed herein and cellular ring nucleases in deactivating the type III CRISPR defence. • a) Top panel is a phosphor image of denaturing polyacrylamide gel electrophoresis showing activation of HEPN family ribonuclease Csx1 (0.5 μM dimer) and consequent radioactively labelled RNA A1 cleavage in a coupled assay containing type III Csm CRISPR complex carrying A26 CRISPR RNA when challenged by indicated amounts of A26 RNA target to initiate cA4 synthesis. RNA A1 is not a target of Csm. Each set of three lanes after the control (c) reaction with Csx1 and labelled non-target RNA alone, is first in the absence and then the presence the ring nuclease SIRV1 gp29 (labelled “vRN”) or S. solfataricus cellular ring nuclease (cRN) Sso2081 (2 μM dimer), respectively. Whereas the SIRV1 gp29 ring nuclease is able to degrade all cA4 generated with up to 50 nM RNA A26 target, the cellular ring nuclease deactivates Csx1 and protects substrate RNA from degradation only when less than 5 nM A26 RNA target is used to initiate cA4 synthesis. Bottom panel is a phosphor image of thin-layer chromatography with reactions as above but visualizes cA4 production, by a-ATP incorporation, in the presence of indicated amounts of A26 RNA target and absence or presence of either SIRV1 gp29 or cellular ring nuclease. […]

cA4 [6] = assay: cA4 degradation capacity: Csx1 activation by HPLC-purified cA4 and deactivation by ring nuclease; format: biochemical; conditions: ring nuclease 2 μM dimer, Csx1 0.5 μM dimer
Description: FIG. 4. […] RNA A1 is not a target of Csm. Each set of three lanes after the control (c) reaction with Csx1 and labelled non-target RNA alone, is first in the absence and then the presence the ring nuclease SIRV1 gp29 (labelled “vRN”) or S. solfataricus cellular ring nuclease (cRN) Sso2081 (2 μM dimer), respectively. Whereas the SIRV1 gp29 ring nuclease is able to degrade all cA4 generated with up to 50 nM RNA A26 target, the cellular ring nuclease deactivates Csx1 and protects substrate RNA from degradation only when less than 5 nM A26 RNA target is used to initiate cA4 synthesis. Bottom panel is a phosphor image of thin-layer chromatography with reactions as above but visualizes cA4 production, by a-ATP incorporation, in the presence of indicated amounts of A26 RNA target and absence or presence of either SIRV1 gp29 or cellular ring nuclease. Csx1 deactivation correlated with complete cA4 degradation. • b) Denaturing gel electrophoresis visualising activation of Csx1 (0.5 μM dimer) by indicated amounts of HPLC-purified cA4 (BIOLOG Life Sciences) and its subsequent deactivation when either SIRV1 gp29 ring nuclease (“vRN”) or cellular ring nuclease (2 μM dimer) is present to degrade cA4. The SIRV1 gp29 ring nuclease degrades 100-fold more cA4 than the cellular ring nuclease. Control reactions (c) show RNA incubated with SIRV1 gp29 or Csx1 in the absence of cA4, respectively. […]

B1: THSA-485A Tsac_2833: DUF1874 ring nuclease from Thermoanaerobacterium bacteriophage THSA-485A, SEQ ID NO. 6 (protein, listed as Archael virus)
chain: MFIANAFSLQMLSQFPAHIDIEEVATSAVAKLDLQSAIGHADTAVVLSGILGKDIESNRVNVQLQPGDSLIVAQLMGGRLPEGSTTLPAGFSFKFFKVTVQA
cA4 cleavage / ring nuclease activity in vitro (cA4 [1]): cleave cA4 rapidly
cA6 degradation: protection of substrate RNA from StCsm6′ ([2]; 2 μM dimer pre-incubated with cA6 at 37° C.): protection of the substrate RNA; also recorded: Clear inhibition of substrate RNA cleavage
effect on cA4-mediated type III CRISPR immunity (plasmid transformation) [3]: overcomes type III CRISPR immunity
effect on cA4-mediated type III CRISPR immunity (plasmid transformation) ([3]; listed as Tsac_2833): effective in neutralising a cA4-mediated CRISPR defence; also recorded: reduced immunity for cA4-mediated CRISPR defence

B2: SIRV1 gp29: DUF1874 ring nuclease, ORF 114a of Sulfolobus islandicus rudivirus 1 (SIRV1), SEQ ID NO. 7 (protein, listed as Archael virus)
chain: MNKVYLANAFSINMLTKFPTKVVIDKIDRLEFCENIDNEDIINSIGHDSTIQLINSLCGTTFQKNRVEIKLEKEDKLYVVQISQRLEEGKILTLEEILKLYESGKVQFFEIIVD
degradation of cA4 (TLC) (cA4 [4]): rapidly degrades; also recorded: specific for the degradation
degradation of cA6 (TLC) (cA6): rapidly degrades; also recorded: specific for the degradation
degradation of cyclic-AMP (TLC) (cyclic-AMP): does not degrade
degradation of cyclic-di-AMP (TLC) (cyclic-di-AMP): does not degrade; also recorded: does not recognise
degradation of cyclic-di-GMP (TLC) (cyclic-di-GMP): does not degrade; also recorded: does not recognise
degradation of cyclic-CAMP (TLC) (cyclic-CAMP): does not degrade; also recorded: does not recognise
cA4 cleavage single turnover rate constant (cA4 [1]): 7 ± 1 min⁻¹
cA4 cleavage single turnover rate constant (cA4 [1]; listed as SIRV1 gp29 (orf 114a)): 7.4 min⁻¹
de-activation of cA4-activated HEPN nuclease Csx1 compared with cRN Sso2081 ([5]; over a range of RNA and cA4 concentrations (FIG. 4)): far more effectively
amount of A26 RNA target up to which all generated cA4 is degraded / Csx1 deactivated ([5]; ring nuclease 2 μM dimer, Csx1 0.5 μM dimer, 70° C.): up to 50 nM
amount of cA4 degraded relative to cellular ring nuclease (cA4 [6]): 100 fold
cA6 degradation: protection of substrate RNA from StCsm6′ ([2]; 2 μM pre-incubated with cA6 for 20 or 60 min at 70° C.): clear inhibition of substrate RNA cleavage
cA6 degradation: protection of substrate RNA from StCsm6′ ([2]; 2 μM pre-incubated with cA6 for 20 or 60 min at 70° C., listed as SIRV1_114a): protection of the substrate RNA

B3: Crenothrix polyspora: DUF1874 protein, sequence WP_087145848.1 from the bacterium Crenothrix polyspora, SEQ ID NO. 16 (protein, listed as Crenothrix polyspora)
chain: MTLFIINAPILTSYGDWRFEGPLSIDKTRKLLREGFTSAIGHAASAEMLARLLAMDIPVNRIAITMEAGDRALILRLLQRLPEGKVLNHHEMMATPFELALLTKLK
cA4 cleavage / ring nuclease activity in vitro (cA4 [1]): cleave cA4 rapidly

B4: B. subtilis yddf: DUF1874 protein encoded by gene yddF of Bacillus subtilis, prophage origin, SEQ ID NO. 15 (protein, listed as Archael virus)
chain: MEIAFLNSLVVTSPGFYKAEKITLDEVKQWLKHYDGRYKSFIGHKSTAQFLQKLLGIRIEQNRKTFRHMKYQKAICFSLYERYPENVLLTQRDLEKARYQFYLLTRLD
cA4 cleavage / ring nuclease activity in vitro (cA4 [1]): cleave cA4 rapidly
